Results published in paper PMC9881158, “The DEAD-box protein Dbp6 is an ATPase and RNA annealase interacting with the peptidyl transferase center (PTC) of the ribosome” (Nucleic Acids Research, 2023).

Tests used:
Dbp6 M-II = molecular target: T1, Dbp6 M-II (Saccharomyces cerevisiae, UniProt P53734 1-629, E342A); assay: EMSA; 0.25 uM protein; stronger than WT; EMSA: 1 nM 32P-RNA, RB 1x (composition not in the material), RNasin, 15 min at 30 C, native PAGE in TBE; bridging: 0.8 uM Dbp6, RB 1x, 15 min at 30 C; conditions: protein: recombinant, tags: N-terminal His6, chain copies: 2
T1 sequence: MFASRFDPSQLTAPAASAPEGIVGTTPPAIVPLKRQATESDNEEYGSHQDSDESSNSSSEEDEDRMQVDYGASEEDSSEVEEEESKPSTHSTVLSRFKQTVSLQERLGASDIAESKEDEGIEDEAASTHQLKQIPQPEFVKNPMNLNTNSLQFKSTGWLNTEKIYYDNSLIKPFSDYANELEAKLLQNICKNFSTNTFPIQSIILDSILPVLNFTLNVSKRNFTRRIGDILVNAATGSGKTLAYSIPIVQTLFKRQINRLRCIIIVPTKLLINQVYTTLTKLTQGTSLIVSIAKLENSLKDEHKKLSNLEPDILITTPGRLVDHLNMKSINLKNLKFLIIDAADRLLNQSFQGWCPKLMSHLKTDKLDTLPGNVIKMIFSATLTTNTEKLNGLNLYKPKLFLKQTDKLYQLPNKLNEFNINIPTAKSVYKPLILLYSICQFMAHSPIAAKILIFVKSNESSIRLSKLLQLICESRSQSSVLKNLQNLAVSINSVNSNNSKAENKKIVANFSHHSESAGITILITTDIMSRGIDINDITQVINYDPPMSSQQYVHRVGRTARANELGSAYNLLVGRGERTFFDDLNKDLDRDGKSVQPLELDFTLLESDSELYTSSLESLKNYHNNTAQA

Dbp6 ΔN [1] = molecular target: T2, Dbp6 ΔN (Saccharomyces cerevisiae, UniProt P53734 1-629, del24-128); assay: EMSA; 0.5 uM protein; like WT; EMSA: 1 nM 32P-RNA, RB 1x (composition not in the material), RNasin, 15 min at 30 C, native PAGE in TBE; bridging: 0.8 uM Dbp6, RB 1x, 15 min at 30 C; conditions: protein: recombinant; tags: N-terminal His6; chain copies: 2; label: 32P
T2 sequence: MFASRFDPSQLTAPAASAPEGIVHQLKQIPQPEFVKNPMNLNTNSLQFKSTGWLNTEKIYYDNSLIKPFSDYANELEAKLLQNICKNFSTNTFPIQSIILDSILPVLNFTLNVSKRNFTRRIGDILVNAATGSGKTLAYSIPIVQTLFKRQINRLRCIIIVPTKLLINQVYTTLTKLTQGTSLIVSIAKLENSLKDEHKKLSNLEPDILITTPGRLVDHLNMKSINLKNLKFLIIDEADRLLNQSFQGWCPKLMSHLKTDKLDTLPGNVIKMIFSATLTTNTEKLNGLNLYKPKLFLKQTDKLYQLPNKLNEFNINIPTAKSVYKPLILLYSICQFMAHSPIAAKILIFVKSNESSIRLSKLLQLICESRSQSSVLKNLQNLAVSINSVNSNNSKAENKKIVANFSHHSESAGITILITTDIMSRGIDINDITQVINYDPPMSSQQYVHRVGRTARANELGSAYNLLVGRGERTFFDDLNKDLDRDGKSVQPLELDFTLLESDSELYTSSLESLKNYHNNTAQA

Dbp6 M-I [2] = molecular target: T3, Dbp6 M-I (Saccharomyces cerevisiae, UniProt P53734 1-629, K240A); assay: EMSA; 0.5 uM protein; stronger than WT; EMSA: 1 nM 32P-RNA, RB 1x (composition not in the material), RNasin, 15 min at 30 C, native PAGE in TBE; bridging: 0.8 uM Dbp6, RB 1x, 15 min at 30 C; conditions: protein: recombinant; tags: N-terminal His6; chain copies: 2; label: 32P
T3 sequence: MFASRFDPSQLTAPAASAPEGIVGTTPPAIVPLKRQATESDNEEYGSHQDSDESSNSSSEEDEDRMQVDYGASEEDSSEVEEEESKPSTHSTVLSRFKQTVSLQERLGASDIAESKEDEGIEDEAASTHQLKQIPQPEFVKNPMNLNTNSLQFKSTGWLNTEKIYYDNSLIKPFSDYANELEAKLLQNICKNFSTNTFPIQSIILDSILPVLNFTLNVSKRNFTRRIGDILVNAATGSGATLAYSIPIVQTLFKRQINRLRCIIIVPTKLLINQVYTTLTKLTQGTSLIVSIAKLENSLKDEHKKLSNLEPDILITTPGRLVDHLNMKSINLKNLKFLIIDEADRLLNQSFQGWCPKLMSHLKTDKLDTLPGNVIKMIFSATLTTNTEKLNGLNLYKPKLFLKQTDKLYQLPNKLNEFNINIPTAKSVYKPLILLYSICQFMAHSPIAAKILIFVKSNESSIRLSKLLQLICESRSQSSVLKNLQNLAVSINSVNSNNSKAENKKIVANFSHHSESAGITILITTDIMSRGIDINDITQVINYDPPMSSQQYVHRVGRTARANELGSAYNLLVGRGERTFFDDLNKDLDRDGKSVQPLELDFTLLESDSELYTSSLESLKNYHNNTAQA

Dbp6 ΔN [3] = molecular target: T2, Dbp6 ΔN; assay: EMSA; 0.25 uM protein; like WT; EMSA: 1 nM 32P-RNA, RB 1x (composition not in the material), RNasin, 15 min at 30 C, native PAGE in TBE; bridging: 0.8 uM Dbp6, RB 1x, 15 min at 30 C; conditions: protein: recombinant; tags: N-terminal His6; chain copies: 2; label: 32P on ss38-mer; 3' overhang 20 nt on strand 1; 38 bp region with one C-C mismatch
Dbp6 M-I [4] = molecular target: T3, Dbp6 M-I; assay: EMSA; 0.25 uM protein; not increased over WT; EMSA: 1 nM 32P-RNA, RB 1x (composition not in the material), RNasin, 15 min at 30 C, native PAGE in TBE; bridging: 0.8 uM Dbp6, RB 1x, 15 min at 30 C; conditions: protein: recombinant; tags: N-terminal His6; chain copies: 2; label: 32P on ss38-mer; 3' overhang 20 nt on strand 1; 38 bp region with one C-C mismatch

Measured: binding result

CAGAACCGCUACACUGAAAUGAUCAAUUCCGGUCUCCC (ssRNA) [ss38-mer]
binds: Dbp6 M-II; label: 32P | Dbp6 ΔN [1] | Dbp6 M-I [2]

B1: ds38/58 hemi-duplex (dsRNA)
RNA 1: GGGAGACCGGAAUUCAUCAUUUCAGUGUAGCGGUUCUGACGUGCAAAUCGAUCGUCGA
RNA 2: CAGAACCGCUACACUGAAAUGAUCAAUUCCGGUCUCCC
binds: Dbp6 ΔN [3] | Dbp6 M-II; label: 32P on ss38-mer, 3' overhang 20 nt on strand 1, 38 bp region with one C-C mismatch | Dbp6 M-I [4]
